Usually stoichiometry N stands for the number of molecules, sites or subunits per partner or assembly.

Data set [1] in a line: SEC; analytical SEC, Superdex 75 Increase 10/300 GL; 100 μL of protein solution (1.0 mg·mL^−1); 20 mM Tris–HCl (pH 8.0), 150 mM NaCl; masses from a calibration standard; self-association, dimer to monomers.
Data set [2] concerns the target TTE^Δ110, TTE0866 with the N-terminal 110 residues truncated (Caldanaerobacter subterraneus subsp. tengcongensis). The data set is described as above.

Turning to “TTE^Δ110, TTE0866 with the N-terminal 110 residues truncated”, the “percent dimer (SEC peak area)” value in data set [1] is “the dimer‐to‐monomer percentage of TTE^Δ110 was 20% and 80%”.
“TTE^Δ110, TTE0866 with the N-terminal 110 residues truncated (domain or fragment)”: the stoichiometry N in data set [2] turned out to be 2.
